Results on one molecule are retold here after PMC3580236.

In this data set the target is T1, Rev1 G193R (1-746) (Saccharomyces cerevisiae (expression …, UniProt P12689 1-746, G193R)).
T1 sequence: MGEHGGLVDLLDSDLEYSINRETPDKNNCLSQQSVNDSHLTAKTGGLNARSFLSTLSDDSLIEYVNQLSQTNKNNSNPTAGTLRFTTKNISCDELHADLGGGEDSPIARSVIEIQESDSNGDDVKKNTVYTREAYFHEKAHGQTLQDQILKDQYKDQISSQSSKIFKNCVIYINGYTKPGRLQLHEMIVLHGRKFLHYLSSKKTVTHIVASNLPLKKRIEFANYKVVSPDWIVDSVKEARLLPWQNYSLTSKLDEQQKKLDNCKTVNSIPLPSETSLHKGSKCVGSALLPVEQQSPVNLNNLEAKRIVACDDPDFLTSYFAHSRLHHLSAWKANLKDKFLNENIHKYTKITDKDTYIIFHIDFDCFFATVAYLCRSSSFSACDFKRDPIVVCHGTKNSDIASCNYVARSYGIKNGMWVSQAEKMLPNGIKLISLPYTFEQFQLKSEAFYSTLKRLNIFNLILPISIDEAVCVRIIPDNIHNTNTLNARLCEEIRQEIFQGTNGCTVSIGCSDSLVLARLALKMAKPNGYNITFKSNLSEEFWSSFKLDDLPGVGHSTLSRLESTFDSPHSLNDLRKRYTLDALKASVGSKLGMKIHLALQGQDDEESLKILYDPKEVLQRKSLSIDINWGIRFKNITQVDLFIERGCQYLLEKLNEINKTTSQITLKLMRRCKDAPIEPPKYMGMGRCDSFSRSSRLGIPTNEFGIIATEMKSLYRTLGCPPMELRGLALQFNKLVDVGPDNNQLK
Description: pre-steady-state burst amplitude titration.

B1: 24/45-mer primer-template (dsDNA)
DNA 1: GCCTCGCAGCCGTCCAACCAACTC
DNA 2: GGACGGCATTGGATCGACCTGGAGTTGGTTGGACGGCTGCGAGGC
For the molecule B1, the Kd – broadly, the equilibrium constant for the complex coming apart – worked out at 16 ± 5 nM.
